The experiment deals with T1, hen egg lysozyme (hen, UniProt P00698 19-147).
T1 construct: Antigen immobilised on the microtitre plate in all ELISAs; also called HEL
The experiment is described as follows: ELISA on immobilised HEL, tAK activity read-out; fusion extracted with glutathione and heat treated, compared with the BSA control. As for the experimental part: FIG. 1 illustrates functional recovery of correctly folded single-domain antibody (VNAR) in the presence of the Sac tAK domain and glutathione. The fusion proteins were assessed for their ability to bind to hen egg lysozyme immobilized onto a microtitre plate in an ELISA format, using the tAK activity as the assay read-out. In each case background binding was measured using BSA as a non-relevant antigen control. In the case of Tma tAK fusions, no significant increase in binding was observed above the background binding to BSA with either glutathione extraction, heat treatment or a combination of the two.

T1 sequence (P00698 19-147): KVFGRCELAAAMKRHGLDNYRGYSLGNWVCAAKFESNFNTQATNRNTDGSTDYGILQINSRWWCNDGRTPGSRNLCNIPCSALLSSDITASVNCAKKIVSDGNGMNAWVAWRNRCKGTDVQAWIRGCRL

B1: SacAK-F3-VNAR fusion protein (Sulfolobus acidocaldarius adenylate kinase, [GGGGS]3 flexible linker F3, hen egg lysozyme specific shark VNAR) (VNAR)
chain: MLATALKLGYAKDRDEMRKLSVEKQKKLQIDAAKGIAEEARAGGEGYLFIDTHAVIRTPSGYLPGLPSYVITEINPSVIFLLEADPKIILSRQKRDTTRNRNDYSDESVILETINFARYAATASAVLAGSTVKVIVNVEGDPSIAANEIIRSMKQSTGGGGSGGGGSGGGGSGSARVDQTPRSVTKETGESLTINCVLRDASYALGSTCWYRKKSGSTNEESISKGGRYVETVNSGSKSFSLRINDLTVEDGGTYRCGLGVAGGYCDYALCSSRYAECGDGTAVTVN
notes: also called Sac tAK fusions; the fusion
Take B1: the “fold increase in binding” value is around 10 fold.

The values above are taken from patent US20140315215A1 (SECRETARY OF STATE FOR HEALTH, published 2014).
